Results: patent US12545745B2, “Method for treating a degenerative neurological disorders comprising administering ASM inhibitor” (KYUNGPOOK NATIONAL UNIVERSITY INDUSTRY-ACADEMIC COOPERATION …, priority 2013, dated 2026)

Key:
[1] = system: APP/PS1 mice; test: Fear conditioning test in APP/PS1 mice; assay type: in vivo, mouse; settings: 50 mg/kg i.p. twice weekly, vs PBS, FIG. 55D
Excerpt: More specifically, wild type mice, APP/PS1/ASM^+/− mice, ASM^+/− mice and APP/PS1 mice were used. On day 1 of the test, each mouse was individually placed into a conditioned chamber, and then after a 60-second exploratory period, a tone (10 kHz, 70 dB) was delivered for 10 seconds. This served as the conditioned stimulus (CS). The CS was coterminated with the unconditioned stimulus (US), an electrical footshock (0.3 mA, 1 s). The CS-US pairing was delivered twice at a 20-second intertrial interval. On day 2, each mouse was placed in the fear-conditioning chamber containing the same exact context, but without administration of a CS or footshock. […] On day 3, each mouse was placed in a test chamber that was different from the conditioning chamber. After a 60-second exploratory period, the tone was presented for 60 seconds without the footshock. Freezing response was measured to measure fear memory. The results are illustrated in FIG. 9 and FIG. 10.
For the fear conditioning test, on the first day, mice were placed in a conditioning chamber, and sound stimulation (10 kHz, 70 dB) and electrical stimulation (0.3 mA, 1 s) were given. On the second day, memory for space was checked without stimulation in the same conditioning chamber as on the first day, and on the third day, a memory test for fear was performed when only sound stimulation was given in another conditioning chamber.

[2] = target: T1, ASM (Mus musculus, UniProt Q04519); test: ASM activity in plasma of depression-induced (RSD stress) mice; assay type: in vivo; settings: 50 mg/kg i.p. twice weekly for 4 weeks prior to induction, vs PBS, FIG. 58B
T1 construct: from tissue; host or cells: mouse serum/plasma and brain tissue (APP/PS1, RSD-stressed C57BL/6, FUS R521C mice)
T1 sequence (Q04519 45-627): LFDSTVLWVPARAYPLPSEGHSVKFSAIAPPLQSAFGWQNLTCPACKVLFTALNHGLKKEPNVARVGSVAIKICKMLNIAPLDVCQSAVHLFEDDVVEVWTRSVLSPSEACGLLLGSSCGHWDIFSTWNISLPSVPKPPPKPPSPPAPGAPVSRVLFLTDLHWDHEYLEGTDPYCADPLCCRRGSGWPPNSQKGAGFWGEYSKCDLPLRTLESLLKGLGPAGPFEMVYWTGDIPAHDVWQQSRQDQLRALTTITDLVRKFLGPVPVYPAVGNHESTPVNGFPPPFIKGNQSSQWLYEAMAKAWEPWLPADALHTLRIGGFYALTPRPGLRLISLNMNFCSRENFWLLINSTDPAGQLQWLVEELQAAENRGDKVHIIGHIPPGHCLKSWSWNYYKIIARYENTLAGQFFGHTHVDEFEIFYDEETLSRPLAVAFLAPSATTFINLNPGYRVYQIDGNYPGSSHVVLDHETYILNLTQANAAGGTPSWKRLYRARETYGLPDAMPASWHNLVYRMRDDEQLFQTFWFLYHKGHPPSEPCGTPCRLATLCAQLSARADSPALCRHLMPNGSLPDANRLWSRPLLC
Protocol: The concentration level of ASM was measured as follows. Specifically, 3μ ? of mouse serum, brain tissue and fibroblast samples were mixed with ASM activity buffer and stored at 37° C. 114 μ ? of ethanol was added to terminate the hydrolysis reaction, followed by centrifugation. 30 μ ? of supernatant was transferred to a glass vial, of which 5 μ ? was applied to the UPLC system. The ASM concentration levels were quantified by comparison with sphingomyelin and Bodipy (aminoacetaldehyde) conjugated with ceramide. The extraction and quantification of the sphingomyelin and ceramide was carried out by extracting and drying the lipids from the sample according to a known conventional method, and resuspending the dried lipid extract to 25 μl of 0.2% Igepal CA-630 (Sigma-Aldrich), and the concentration levels of each lipid were quantitated using the UPLC system. […]
The concentration level of ASM was measured as follows. […] The ASM concentration levels were quantified by comparison with sphingomyelin and Bodipy (aminoacetaldehyde) conjugated with ceramide. The extraction and quantification of the sphingomyelin and ceramide was carried out by extracting and drying the lipids from the sample according to a known conventional method, and resuspending the dried lipid extract to 25 μl of 0.2% Igepal CA-630 (Sigma-Aldrich), and the concentration levels of each lipid were quantitated using the UPLC system.

[3] = target: T1, ASM; test: ASM activity in plasma of ALS animal model (FUS R521C mice); assay type: in vivo; settings: 7-week-old ALS mice, 50 mg/kg i.p. twice weekly, vs PBS; FIG. 56B
[4] = system: ALS animal model (FUS R521C); test: Motor function tests (Tail suspension, Hanging wire, Rotarod) in ALS animal model; assay type: in vivo, mouse; settings: ALS mice, 50 mg/kg i.p. twice weekly, vs PBS, FIG. 57A-57C
[5] = system: ASM protein; test: ASM protein concentration in plasma of APP/PS1 mice (ELISA); assay type: in vivo, mouse; settings: 50 mg/kg i.p. twice weekly, between groups, FIG. 51C

level of ASM activity in the plasma [2]: significantly low
level of ASM activity in the plasma [3]: remarkably low
B1: ASM-ab 23A12C3: self-made monoclonal ASM antibody, Koma biotech; heavy chain SEQ ID NO. 29, light chain SEQ ID NO. 30 (antibody)
heavy: MGWSWIFLFLLSGTAGVHSEVQLQQSGPVLVKPGASVKMSCKASGYTFTDYYMNWVKQSHGKSLEWIGVINPYNDGTSYNQKFKGKATLTVDKSSSTAYMELNSLTSEDSAVYYCAREKLYYYGRDYAMDYWGQGTSVTVSSAKTTPPSVYPLAPGSAAQTNSMVTLGCLVKGYFPEPVTVTWNSGSLSSGVHTFPAVLQSDLYTLSSSVTVPSSTWPSQTVTCNVAHPASSTKVDKKIVPRDCGCKPCICTVPEVSSVFIFPPKPKDVLTITLTPKVTCVVVDISKDDPEVQFSWFVDDVEVHTAQTKPREEQINSTFRSVSELPIMHQDWLNGKEFKCRVNSAAFPAPIEKTISKTKGRPKAPQVYTIPPPKEQMAKDKVSLTCMITNFFPEDITVEWQWNGQPAENYKNTQPIMDTDGSYFVYSKLNVQKSNWEAGNTFTCSVLHEGLHNHHTEKSLSHSPGK
light: MSSAQFLGLLLLCFQGTRCDIQMTQTTSSLSASLGDRVTISCRSSQDISNYLNWCQQKPDGTVKLLIYYTSRLHSGVPSRFSGSGSGTDYSLTISNLEQEDIATYFCQQDNTLPYTFGGGTKLEIKRADAAPTVSIFPPSSEQLTSGGASVVCFLNNFYPKDINVKWKIDGSERQNGVLNSWTDQDSKDSTYSMSSTLTLTKDEYERHNSYTCEATHKTSTSPIVKSFNRNEC
modifications: 23A12C3_Heavy chain; 23A12C3_Light chain
notes: self-made monoclonal ASM antibody, Koma biotech; 30
impairments in spatial memory, cognition and memory formation (fear conditioning test) [1]: improved
impairment in motor function [4]: improved
plasma ASM protein concentration [5]: no difference
